Experimental data: patent publication US20250263462A1 (US Dept. of Health and Human Services, published 2025)

Tests used:
Assay in all cases: cell-based or functional assay
[1] = biological target: HLA-A11 on COS7/A11 cells expressing the KRAS G12V minigene (23-mer SEQ ID NO: 120) (human, UniProt A*11:01)
[2] = biological target: HLA-A11 on COS7/A11 cells expressing the KRAS G12D minigene (23-mer SEQ ID NO: 119) (human, UniProt A*11:01)
[3] = biological target: HLA-A11 on COS7/A11 cells expressing the WT KRAS minigene (23-mer SEQ ID NO: 118) (human, UniProt A*11:01)
[4] = biological target: KRAS G12V 10-mer peptide … (SEQ ID NO: 33) presented by HLA-A11 on pulsed cells (human, UniProt A*11:01)
[5] = biological target: T1, WT KRAS 10-mer peptide (SEQ ID NO: 30) presented by HLA-A11 on pulsed cells (human, UniProt A*11:01)
[6] = biological target: T2, KRAS G12D 10-mer peptide … (SEQ ID NO: 2) presented by HLA-A11 on pulsed cells (human, UniProt A*11:01)
[7] = biological target: T1, WT KRAS 10-mer peptide (SEQ ID NO: 30) …; remark: listed apart in the source
[8] = biological target: KRAS G12D 9-mer peptide KRAS8-16 … (SEQ ID NO: 34) presented by HLA-A11 on pulsed cells (human, UniProt A*11:01)
[9] = biological target: T2, KRAS G12D 10-mer peptide … (SEQ ID NO: …); remark: listed apart in the source

B1: TRAV19*01 + TRBV4*01 TCR chain pair (TCR, V domains shown)
V domain 1: GQQVKQSSPSLTVQEGGILILNCDYENDMFDYFAWYKKYPDNSPTLLISVRSNVDKREDGRFTVFLNKSGKHFSLHITASQPEDTAVYLCAAGDSGGSNYKLTFGKGTLLTVTP
V domain 2: ETAVFQTPNYHVTQVGNEVSFNCKQTLGHDTMYWYKQDSKKLLKIMFSYNNKQLIVNETVPRRFSPQSSDKAHLNLRIKSVEPEDSAVYLCASSRDWGPAEQFFGPGTRLTVLE
[1]
  IFN-γ, PBL + Cos7/A11 minigene transfectant: 30 pg/mL
[2]
  IFN-γ, PBL + Cos7/A11 minigene transfectant: 27 pg/mL
[3]
  IFN-γ, PBL + Cos7/A11 minigene transfectant: 32 pg/mL
[4]
  IFN-γ, PBL + pulsed Cos7/A11: 27 pg/mL
[5]
  IFN-γ, PBL + pulsed Cos7/A11: 30 pg/mL
[6]
  IFN-γ, PBL + pulsed Cos7/A11: 30 pg/mL

B2: TRAV3-3*01 + TRBV13-1*02 TCR chain pair (TCR, V domains shown)
V domain 1: GEQVEQRPPHLSVREGDSAVITCTYTDPNSYYFFWYKQEPGASLQLLMKVFSSTEINEGQGFTVLLNKKDKRLSLNLTAAHPGDSAAYFCAVSGGTNSAGNKLTFGIGTRVLVRP
V domain 2: EAAVTQSPRNKVTVTGGNVTLSCRQTNSHNYMYWYRQDTGHGLRLIHYSYGAGNLQIGDVPDGYKATRTTQEDFFLLLELASPSQTSLYFCASASWGGYAEQFFGPGTRLTVLE
[1]
  IFN-γ, PBL + Cos7/A11 minigene transfectant: 61 pg/mL
[2]
  IFN-γ, PBL + Cos7/A11 minigene transfectant: 56 pg/mL
[3]
  IFN-γ, PBL + Cos7/A11 minigene transfectant: 51 pg/mL
[4]
  IFN-γ, PBL + pulsed Cos7/A11: 44 pg/mL
[5]
  IFN-γ, PBL + pulsed Cos7/A11: 47 pg/mL
[6]
  IFN-γ, PBL + pulsed Cos7/A11: 49 pg/mL

B3: TRAV3-3*01/TRBV4*01 murine anti-KRAS G12V TCR (SEQ ID NOs: 133 and 134) (TCR, V domains shown)
V domain 1: GEQVEQRPPHLSVREGDSAVITCTYTDPNSYYFFWYKQEPGASLQLLMKVFSSTEINEGQGFTVLLNKKDKRLSLNLTAAHPGDSAAYFCAVSGGTNSAGNKLTFGIGTRVLVRP
V domain 2: ETAVFQTPNYHVTQVGNEVSFNCKQTLGHDTMYWYKQDSKKLLKIMFSYNNKQLIVNETVPRRFSPQSSDKAHLNLRIKSVEPEDSAVYLCASSRDWGPAEQFFGPGTRLTVLE
[7]
  IFN-γ, PBL + Cos7/A11 pulsed at 10^-6 (10^× µM): 50 pg/mL
  IFN-γ, PBL + Cos7/A11 pulsed at 10^-7 (10^× µM): 42 pg/mL
  IFN-γ, PBL + Cos7/A11 pulsed at 10^-8 (10^× µM): 50 pg/mL
  IFN-γ, PBL + Cos7/A11 pulsed at 10^-9 (10^× µM): 50 pg/mL
  IFN-γ, PBL + Cos7/A11 pulsed at 10^-10 (10^× µM): 48 pg/mL
  IFN-γ, PBL + Cos7/A11 pulsed at 10^-11 (10^× µM): 55 pg/mL
  IFN-γ, PBL + Cos7/A11 pulsed at 10^-12 (10^× µM): 47 pg/mL
  IFN-γ, PBL + Cos7/A11 pulsed at 10^-13 (10^× µM): 68 pg/mL
[8]
  IFN-γ, PBL + Cos7/A11 pulsed at 10^-6 (10^× µM): 47 pg/mL
  IFN-γ, PBL + Cos7/A11 pulsed at 10^-7 (10^× µM): 48 pg/mL
  IFN-γ, PBL + Cos7/A11 pulsed at 10^-8 (10^× µM): 49 pg/mL
  IFN-γ, PBL + Cos7/A11 pulsed at 10^-9 (10^× µM): 44 pg/mL
  IFN-γ, PBL + Cos7/A11 pulsed at 10^-10 (10^× µM): 52 pg/mL
  IFN-γ, PBL + Cos7/A11 pulsed at 10^-11 (10^× µM): 49 pg/mL
  IFN-γ, PBL + Cos7/A11 pulsed at 10^-12 (10^× µM): 55 pg/mL
  IFN-γ, PBL + Cos7/A11 pulsed at 10^-13 (10^× µM): 52 pg/mL
[9]
  IFN-γ, PBL + Cos7/A11 pulsed at 10^-6 (10^× µM): 43 pg/mL
  IFN-γ, PBL + Cos7/A11 pulsed at 10^-7 (10^× µM): 40 pg/mL
  IFN-γ, PBL + Cos7/A11 pulsed at 10^-8 (10^× µM): 46 pg/mL
  IFN-γ, PBL + Cos7/A11 pulsed at 10^-9 (10^× µM): 41 pg/mL
  IFN-γ, PBL + Cos7/A11 pulsed at 10^-10 (10^× µM): 53 pg/mL
  IFN-γ, PBL + Cos7/A11 pulsed at 10^-11 (10^× µM): 43 pg/mL
  IFN-γ, PBL + Cos7/A11 pulsed at 10^-12 (10^× µM): 49 pg/mL
  IFN-γ, PBL + Cos7/A11 pulsed at 10^-13 (10^× µM): 49 pg/mL
[1]
  IFN-γ, PBL + Cos7/A11 minigene transfectant: 11100 pg/mL
[2]
  IFN-γ, PBL + Cos7/A11 minigene transfectant: 38 pg/mL
[3]
  IFN-γ, PBL + Cos7/A11 minigene transfectant: 41 pg/mL
[5]
  IFN-γ, PBL + pulsed Cos7/A11: 36 pg/mL
[6]
  IFN-γ, PBL + pulsed Cos7/A11: 39 pg/mL
